# In patent US20230349919A1 (Regeneron, published 2023):
# Changes are numbered by the printed parent chain.
# T1: Der f 1 (house dust mite, UniProt P16311 99-321)
# T1 construct: Also used oligonucleotide-barcoded for cell staining
# T1 sequence (looked up): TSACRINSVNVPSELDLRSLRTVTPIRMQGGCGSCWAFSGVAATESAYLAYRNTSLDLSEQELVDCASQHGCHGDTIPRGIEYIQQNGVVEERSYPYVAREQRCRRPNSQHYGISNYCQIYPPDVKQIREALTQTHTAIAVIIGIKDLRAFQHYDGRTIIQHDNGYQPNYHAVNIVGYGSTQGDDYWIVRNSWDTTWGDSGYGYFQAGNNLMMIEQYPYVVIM
# T2: Der p 2 (house dust mite, UniProt P49278 18-146)
# T2 construct: Also used oligonucleotide-barcoded for cell staining
# T2 sequence (looked up): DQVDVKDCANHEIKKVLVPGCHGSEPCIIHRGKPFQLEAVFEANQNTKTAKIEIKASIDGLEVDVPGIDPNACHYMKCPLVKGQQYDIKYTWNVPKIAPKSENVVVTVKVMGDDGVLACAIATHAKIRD
# T3: Der p 1 (house dust mite, UniProt P08176 99-320)
# T3 construct: Also used oligonucleotide-barcoded for cell staining; also called natural Der p 1
# T3 sequence (looked up): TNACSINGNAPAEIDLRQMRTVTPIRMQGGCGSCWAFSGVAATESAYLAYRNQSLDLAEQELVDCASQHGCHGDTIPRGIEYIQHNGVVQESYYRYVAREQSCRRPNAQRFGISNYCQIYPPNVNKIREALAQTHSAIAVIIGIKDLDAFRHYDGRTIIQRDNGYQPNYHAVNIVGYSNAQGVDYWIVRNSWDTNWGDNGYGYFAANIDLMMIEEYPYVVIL
# T4: Ole e 1 (olive, UniProt P19963 1-145)
# T4 construct: Also used oligonucleotide-barcoded for cell staining; also called olive allergen; negative control allergen
# T4 sequence (looked up): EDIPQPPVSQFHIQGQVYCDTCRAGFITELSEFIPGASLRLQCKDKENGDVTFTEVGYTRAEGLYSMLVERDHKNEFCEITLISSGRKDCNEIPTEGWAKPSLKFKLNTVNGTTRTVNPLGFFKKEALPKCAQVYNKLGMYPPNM
# B1: IgE mAb 12_2 (antibody, V domains shown)
# VH: QAYLQQSGAELVRPGASVKMSCKASGYTFISYNMHWVKQTRRQGLEWIGAIYPGNGDTSYNQKFKGKATLTVDKSSSTAYMQLSSLTSEDSAVYFCARWDYYGSSYGAYWGQGTLVTVSA
# VL: DIQMTQSPASLSVSVGETVTITCRASENIYSNLAWYQQKQGKSPQLLVYAATNLADGVPSRFSGSGSGTQYSLKINSLQSEDFGSYYCQHFWGTPWTFGGGTKLEIK
# B2: Candidate ID 13 (antibody, V domains shown)
# VH: B1 VH
# VL: B1 VL
# B3: ab_1 (antibody, V domains shown)
# VH: EVQLVESGGGLEQPGGSLRLSCAGSGFTFSDYAMTWVRQAPGKGLEWVSSISGSGGNTYYADSVKGRFTISRDNSKNTLYLQMNSLRAEDTAVYYCAKDALTIAIRPYYYGLDVWGQGTTVTVSS
# VL: DIVMTQSPLSLPVTPGEPASISCRSSQSLDYSYGYNYLDWYLQKSGQSPQLLIYLASNRASGVPDRFSGSGSGTDFTLKISRVEAEDVGFYYCMQSLSTPYTFGQGTKLEIK
# B4: ab_2 (antibody, V domains shown)
# VH: B3 VH with S30R, G56S, K98R, A100R, I103A, I105V
# VL: B3 VL with Y33S, S98Q
# B5: ab_3 (antibody, V domains shown)
# VH: B3 VH with S30R, A100R, T102S, I103K, A104T
# VL: B3 VL with D30L, Y33T, A56G
# B6: IgE mAb 1_2 (antibody, V domains shown)
# VH: QIQLVQSGPELKKPGETVKISCKASGYTFTTYGMSWVKQAPGKGLKWMGWINTYSGVPTYADDFKGRFVFSLETSASTAYLQINNLKNEDTATYFCARAYYYGSSYLIWYFDVWGTGTTVTVSS
# VL: NIVLTQSPASLAVSLGQRATISCRASESVDSYGNSFMHWYQQKPGQPPKLLIYLASNLESGVPARFSGSGSRTDFTLTIDPVEADDAATYYCQQNNEDPYTFGGGTKLEIK
# notes: IgE (IGHE, IGKC) from HDM-exposed mouse, BoneMarrow
# B7: Candidate ID 21 (antibody, V domains shown)
# VH: QVQLQQSGPELVKPGASVKISCKAPGNAFSYSWMNWVKQRPGKGLEWVGRIYPGDGDTNYNGKFMGKATLTADKSSNTAYIQLSSLTSEDSAVYFCARSGGGTLYWYFDVWGTGTTVTVSS
# VL: DIVMTQSPSSLALSVGQKVTMNCRSSQSLLNSFNQKNYLAWFQQKPGQSPRLLIYFASTRESGVPDRFIGSGSGTDFTLTISSVQAEDLADYFCQQHYNTPLTFGAGTTLELK
# notes: IgE PCs LN
# B8: IgE mAb 21_2 (antibody, V domains shown)
# VH: B7 VH
# VL: B7 VL
# notes: IgE (IGHE, IGKC) from HDM-exposed mouse, LymphNode
# Legend:
# Der f 1 [1] = target: T1, Der f 1; assay: ELISA, coated Der f1
# Procedure: (§1) After selecting allergen-specific antibodies, relative binding to Der p 1, Der p 2, and Der f 1 were quantified by ELISA. […] Specifically, binding microtiter plates were coated with 100 μl of 2 μg/mL of natural Der p 1, Der p 2, Der f 1, and Ole e 1 in PBS overnight at 4′C. IgE antibodies were prepared at a concentration of 1 μg/mL and serially diluted three-fold in PBS with 0.5% w/v BSA. After washing with 0.05% v/v Tween® 20 in PBS and blocking in PBS with 0.5% w/v BSA, 100 μl of the diluted IgE antibodies were transferred to the plates and incubated for one hour at ambient temperature. Subsequently, 100 μL of anti-mouse IgE antibody conjugated to horse-radish peroxidase (HRP) diluted at 1:5000 was added. The plates were then incubated for one hour at ambient temperature, and washed in 0.05% v/v/Tween® 20 in PBS. Subsequently, the HRP substrate 3,3′,5,5′-tetramethylbenzidine (TMB) was added. The reaction was stopped (with 100 μL of sulfuric acid 2.0 N) and optical density values determined using a plate reader at 450 nm.
# Der f 1 [2] = target: T1, Der f 1; assay: centered log-ratio of barcode count
# Excerpt: (§2) The barcoded antigen library was mapped by the CellRanger software to a custom short-read reference that contained the DNA tag sequences of the four barcoded antigens, namely, Der p 1, Der p 2, Der f 1 and Ole e 1. These tag sequences were quantified across all cells and were normalized by taking the centered log-ratio (CLR) per barcoded antigen across each sample capture. In addition, background antigen signal for each barcoded antigen was removed by DSB (Denoised and Scaled by Background). Both the CLR and the DSB normalized values were used to quantify the target antigen signals, namely, those for Der p 1, Der p 2 and Der f 1, against the control signal, namely, that for Ole e 1.
# Der p 2 [3] = target: T2, Der p 2; assay: centered log-ratio of barcode count
# Excerpt: as §2
# Der p 2 [4] = target: T2, Der p 2; assay: ELISA, coated Der p2
# Procedure: as §1
# Der p 1 [5] = target: T3, Der p 1; assay: ELISA, coated Der p1
# Procedure: as §1
# Der f 1 [6] = target: T1, Der f 1; assay: barcode rank score against control Ole e 1
# Der p 2 [7] = target: T2, Der p 2; assay: barcode rank score against control Ole e 1
# Der f 1 [8] = target: T1, Der f 1; assay: barcoded-antigen count on source cell
# Der p 2 [9] = target: T2, Der p 2; assay: barcoded-antigen count on source cell
# Der f 1 [10] = target: T1, Der f 1; assay: antigen specificity score against Ole e 1 from barcode counts of single IgE PCs [cont.]
# Procedure: (§3) Antigen specificity score (AgSS) for IgG were calculated by subtracting the quantile of hIL-6Rα barcoded UMI counts multiplied by a penalty factor (x) from the quantile of hIL-4Rα barcoded UMI counts, AgSS=Q_hIL-4Rα-Q_hIL-6Rα^x. AgSS for IgE were calculated with a similar formula for mouse and human single cell data. For IgE scores the target antigens were either Der p1, Der p2 or Der f1 and the control was always Ole e1.
# (§4) Following processing of the three single-cell libraries, the gene expression and V(D)J region sequencing data were used to subset PCs with a valid IgE constant region and detectable expression of IgE and CD79a but lacking the expression of Ms4a1 and CD19 typically found in non-PC B cells. IgE-expressing PCs were then assessed for differential expression against additional IgA, IgG, and IgM plasma cell isotypes to further characterize the unique transcriptional signature of IgE-secreting PCs. IgE-secreting PCs were then assessed for antigen specificity by comparing the normalized levels of the target antigens, namely, Der p 1, Der p 2, or Der f 1, against the normalized level of the control antigen Ole e 1. This was performed by calculating an empirical score for each target antigen and subtracting the […] with a penalty factor. The formula used to do is set forth below: […]
# Der p 2 [11] = target: T2, Der p 2; assay: as above
# Procedure: as §3, §4
# Der p 1 [12] = target: T3, Der p 1; assay: as above
# Procedure: as §3, §4
# Der f 1 [13] = target: T1, Der f 1; assay: barcoded antigen sequencing of single IgE PCs with trapped IgE [cont.]
# Excerpt: as §2
# Der p 2 [14] = target: T2, Der p 2; assay: as above
# Excerpt: as §2
# Der p 1 [15] = target: T3, Der p 1; assay: as above
# Excerpt: as §2
# Der f 1 [16] = target: T1, Der f 1; assay: barcoded antigen sequencing of single IgE PCs with trapped IgE
# Der p 2 [17] = target: T2, Der p 2; assay: as above
# Der p 1 [18] = target: T3, Der p 1; assay: as above
# [19] = target: T5, human IL-4 Receptor α (hIL-4Rα) ectodomain (Example 17) (human, UniProt P24394 26-232, AlexaFluor 647 label, or biotin bound to PE-labeled streptavidin tetramer); assay: method not stated
# T5 construct: extracellular domain; Used as AF647-labelled monomer (5 nM) and as biotinylated ectodomain on SA-PE tetramer; also called hIL-4Rα-AlexaFluor647 (monomeric); hIL-4Rα-biotin-StAv-PE (tetrameric)
# [20] = target: T5, human IL-4 Receptor α (hIL-4Rα) …; assay: Biacore at +25°C
# Ole e 1 [21] = target: T4, Ole e 1; assay: centered log-ratio of barcode count
# Excerpt: as §2
# Ole e 1 [22] = target: T4, Ole e 1; assay: barcoded-antigen count on source cell
binder,measurement,setting,value
B1,EC50 (read off the curve),Der f 1 [1],~100 pM
same,Derf1_ab_clr,Der f 1 [2],1.74
same,Derp2_ab_clr,Der p 2 [3],0.00487
same,EC50 (read off the curve),Der p 2 [4],~100 pM
same,EC50 (read off the curve),Der p 1 [5],~100 pM
same,Derf1_ab_rank,Der f 1 [6],0.973
same,Derp2_ab_rank,Der p 2 [7],0.453
same,Derf1_ab_raw,Der f 1 [8],57 counts
same,Derp2_ab_raw,Der p 2 [9],11 counts
B2,Antigen Score,Der f 1 [10],0.973
same,Antigen Score,Der p 2 [11],0.453
same,Antigen Score,Der p 1 [12],0.637
same,Normalized Barcode Count,Der f 1 [13],1.74
same,Normalized Barcode Count,Der p 2 [14],0.005
same,Normalized Barcode Count,Der p 1 [15],0.233
same,Raw Antigen Barcode Count,Der f 1 [16],57
same,Raw Antigen Barcode Count,Der p 2 [17],11
same,Raw Antigen Barcode Count,Der p 1 [18],15
B3,Kd,[19],1680 pM
same,t1/2 pH7.4,[20],> 116 min
B4,Kd,[19],3260 pM
same,t1/2 pH7.4,[20],21.7 min
B5,Kd,[19],14200 pM
same,t1/2 pH7.4,[20],10.6 min
B6,Derf1_ab_clr,Der f 1 [2],1.32
same,Olee1_ab_clr,Ole e 1 [21],-1.12
same,Derp2_ab_clr,Der p 2 [3],1.65
same,Derf1_ab_rank,Der f 1 [6],0.982
same,Derp2_ab_rank,Der p 2 [7],1
same,Derf1_ab_raw,Der f 1 [8],37 counts
same,Olee1_ab_raw,Ole e 1 [22],0 counts
same,Derp2_ab_raw,Der p 2 [9],60 counts
B7,Antigen Score,Der f 1 [10],-0.386
same,Antigen Score,Der p 2 [11],0.412
same,Antigen Score,Der p 1 [12],-0.245
same,Normalized Barcode Count,Der f 1 [13],-0.795
same,Normalized Barcode Count,Der p 2 [14],4.01
same,Normalized Barcode Count,Der p 1 [15],-0.398
same,Raw Antigen Barcode Count,Der f 1 [16],1
same,Raw Antigen Barcode Count,Der p 2 [17],215
same,Raw Antigen Barcode Count,Der p 1 [18],2
B8,Derf1_ab_clr,Der f 1 [2],-0.795
same,Olee1_ab_clr,Ole e 1 [21],0.826
same,Derp2_ab_clr,Der p 2 [3],4.01
same,EC50 (read off the curve),Der p 2 [4],~200 pM
same,Derf1_ab_rank,Der f 1 [6],-0.386
same,Derp2_ab_rank,Der p 2 [7],0.412
same,Derf1_ab_raw,Der f 1 [8],1 counts
same,Olee1_ab_raw,Ole e 1 [22],4 counts
same,Derp2_ab_raw,Der p 2 [9],215 counts
